In patent US20190381086A1, “INHIBITION OF NEDDYLATION USING GLYCYL-tRNA SYNTHETASE INHIBITORS” (The Scripps Research Institute, priority 2015, published 2019):
Each block holds one molecule with its values, some of them ahead of it.

Biological target: T1, Ubc12^N8 (Homo sapiens, UniProt P61081+Q15843, C111S)
T1 construct: DEN1 which processes NEDD8 to its mature, 76-amino acid form; made in house; conjugate made enzymatically in vitro
Assay: Biolayer interferometry, immobilized Ubc12^N8
Type: binding
Conditions: for Kd: binding to immobilized Ubc12^N8
Protocol: V5-tagged GlyRS and Flag-tagged Ubc12-C111S genes were co-transfected to HEK293 cell for the assay. FIG. 3B: Strong binding of Ubc12^N8 to GlyRS as determined by biolayer interferometry. A.U. indicates Arbitrary Unit. Binding analysis to immobilized GST-GlyRS was carried out with the same concentration (62.5 nM) of NEDD8, Ubc12, or Ubc12^N8 at 30°. FIG. 3C: Biolayer interferometry analysis confirms that GlyRS binding to Ubc12^N8. Binding analysis to immobilized Ubc12^N8 was carried out with a range of concentrations of full-length (8.07 nM-129 nM) GlyRS. FIG. 3D: Structural model of the GlyRS-Ubc12^N8 interaction generated using Patchdock (a server for molecular docking). FIGS. 3E-G: Biolayer interferometry analysis confirms that F84-L93 and I232-M238 regions, but not Insertion 1, are important for GlyRS binding to Ubc12^N8. Binding analysis to immobilized Ubc12^N8 was carried out with a range of concentrations (1.25-20 μg/mL) of ΔF84-L93 (8.16-130 nM), ΔI232-M238 (8.13-130 nM), and Alnsertion 1 (62.5-125 nM) GlyRS. FIG. 3H: Over-expression of ΔI232-M238 GlyRS in HEK293 cells cannot promote NEDD8 conjugation of Ubc12. HEK293 cells were transfected with pcDNA6V5 vectors containing the indicated gene fragment with a V5-tag.
The conjugated Ubc12 was prepared by mixing APPBP1/UBA3 (2 μM), Ubc12 (C111S; the mutant would form a stable ester linkage to NEDD8) (70 μM), and His-SUMO-tagged NEDD8 (100 μM). The mixture was incubated at 25° C. for 16 h in 50 mM NaOAc pH 5.5, 50 mM NaCl, 1 mM MgCl2, and 2 mM ATP. Ubc12^N8 was then purified by gel filtration chromatography using a Superdex 200 column. The fractions containing only Ubc12^N8 were concentrated and used for the study. The purity of proteins was examined by SDS-PAGE to be above 95%.
The dissociation constants (Kd) were obtained with biolayer interferometry by using an Octet QK system (ForteBio, Menlo Park, Calif., USA). Samples or buffer were dispensed into 96-well plates (Millipore, Billerica, Mass.) at 200 μL per well. Operating temperature was maintained at 30° C. Proteins were diluted into kinetic buffer (PBS with 0.1% BSA and 0.002% Tween-20) and immobilized on either anti-GST or Ni-NTA sensor tips. The other proteins were diluted using the same buffer into a range of different concentrations. Assays with Ubc12^N8 were carried out using the acid kinetic buffer (50 mM NaOAc pH 5.5, 50 mM NaCl, 0.1% BSA, and 0.002% Tween-20). The raw data were processed by subtraction to reference cells and then aligned with baselines. The dissociation constants Kd were obtained by fitting the processed data using the 1:1 model in the Octet analysis software with R^2>0.99.
Indeed, GlyRS can bind to Ubc12^N8 in HEK293 cells as detected by co-immunoprecipitation (FIG. 3a). […] To quantify the difference, Ubc12^N8 was enzymatically made and purified, and its binding affinity to GlyRS was measured using biolayer interferometry. […] Therefore, it is possible that GlyRS enhances neddylation by protecting reaction intermediate Ubc12^N8.
Using the crystal structure of human GlyRS16 and of Ubc12N8 (adapted from its complex with substrate cullin and E3), a model was generated for the GlyRS-Ubc12^N8 interaction using the Patchdock algorithm (http://bioinfo3d.cs.tau.ac.il/PatchDock/). […]

T1 sequence (P61081 whole entry C111S): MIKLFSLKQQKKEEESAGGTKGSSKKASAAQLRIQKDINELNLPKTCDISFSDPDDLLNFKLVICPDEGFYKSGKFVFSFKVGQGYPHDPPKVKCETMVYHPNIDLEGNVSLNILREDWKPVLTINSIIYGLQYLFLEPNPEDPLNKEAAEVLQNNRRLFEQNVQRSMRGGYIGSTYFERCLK
T1 sequence (Q15843 1-76 limits assumed): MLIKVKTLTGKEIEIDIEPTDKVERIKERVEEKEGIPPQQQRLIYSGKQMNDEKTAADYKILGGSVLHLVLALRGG

B1: A84-93: GlyRS deletion mutant, F84-L93 replaced by GGG (protein)
chain: MDGAGAEEVLAPLRLAVRQQGDLVRKLKEDKAPQVDVDKAVAELKARKRVLEAKELALQPKDDIVDRAKMEDTLKRRFFYDQAGGGYDFGPVGCALKNNIIQTWRQHFIQEEQILEIDCTMLTPEPVLKTSGHVDKFADFMVKDVKNGECFRADHLLKAHLQKLMSDKKCSVEKKSEMESVLAQLDNYGQQELADLFVNYNVKSPITGNDLSPPVSFNLMFKTFIGPGGNMPGYLRPETAQGIFLNFKRLLEFNQGKLPFAAAQIGNSFRNEISPRSGLIRVREFTMAEIEHFVDPSEKDHPKFQNVADLHLYLYSAKAQVSGQSARKMRLGDAVEQGVINNTVLGYFIGRIYLYLTKVGISPDKLRFRQHMENEMAHYACDCWDAESKTSYGWIEIVGCADRSCYDLSCHARATKVPLVAEKPLKEPKTVNVVQFEPSKGAIGKAYKKDAKLVMEYLAICDECYITEMEMLLNEKGEFTIETEGKTFQLTKDMINVKRFQKTLYVEEVVPNVIEPSFGLGRIMYTVFEHTFHVREGDEQRTFFSFPAVVAPFKCSVLPLSQNQEFMPFVKELSEALTRHGVSHKVDDSSGSIGRRYARTDEIGVAFGVTIDFDTVNKTPHTATLRDRDSMRQIRAEISELPSIVQDLANGNITWADVEARYPLFEGQETGKKETIEE
- Kd: 27 ± 0.4 nM
- fold decrease of binding of GlyRS to Ubc12^N8 (versus full-length GlyRS): 9 fold

B2: A232-238: GlyRS deletion mutant, I232-M238 replaced by GG (protein)
chain: MDGAGAEEVLAPLRLAVRQQGDLVRKLKEDKAPQVDVDKAVAELKARKRVLEAKELALQPKDDIVDRAKMEDTLKRRFFYDQAFAIYGGVSGLYDFGPVGCALKNNIIQTWRQHFIQEEQILEIDCTMLTPEPVLKTSGHVDKFADFMVKDVKNGECFRADHLLKAHLQKLMSDKKCSVEKKSEMESVLAQLDNYGQQELADLFVNYNVKSPITGNDLSPPVSFNLMFKTFGGPGYLRPETAQGIFLNFKRLLEFNQGKLPFAAAQIGNSFRNEISPRSGLIRVREFTMAEIEHFVDPSEKDHPKFQNVADLHLYLYSAKAQVSGQSARKMRLGDAVEQGVINNTVLGYFIGRIYLYLTKVGISPDKLRFRQHMENEMAHYACDCWDAESKTSYGWIEIVGCADRSCYDLSCHARATKVPLVAEKPLKEPKTVNVVQFEPSKGAIGKAYKKDAKLVMEYLAICDECYITEMEMLLNEKGEFTIETEGKTFQLTKDMINVKRFQKTLYVEEVVPNVIEPSFGLGRIMYTVFEHTFHVREGDEQRTFFSFPAVVAPFKCSVLPLSQNQEFMPFVKELSEALTRHGVSHKVDDSSGSIGRRYARTDEIGVAFGVTIDFDTVNKTPHTATLRDRDSMRQIRAEISELPSIVQDLANGNITWADVEARYPLFEGQETGKKETIEE
- binding of GlyRS to Ubc12^N8 (immobilized Ubc12^N8, FIG. 3f): abolished the binding completely

Continued, values first:

- Kd: 4.32 ± 0.12 nM
B3: Insertion 1: GlyRS with Insertion 1 deleted (F147-F224 replaced by GSGSGG) (protein)
chain: MDGAGAEEVLAPLRLAVRQQGDLVRKLKEDKAPQVDVDKAVAELKARKRVLEAKELALQPKDDIVDRAKMEDTLKRRFFYDQAFAIYGGVSGLYDFGPVGCALKNNIIQTWRQHFIQEEQILEIDCTMLTPEPVLKTSGHVDKFADGSGSGGNLMFKTFIGPGGNMPGYLRPETAQGIFLNFKRLLEFNQGKLPFAAAQIGNSFRNEISPRSGLIRVREFTMAEIEHFVDPSEKDHPKFQNVADLHLYLYSAKAQVSGQSARKMRLGDAVEQGVINNTVLGYFIGRIYLYLTKVGISPDKLRFRQHMENEMAHYACDCWDAESKTSYGWIEIVGCADRSCYDLSCHARATKVPLVAEKPLKEPKTVNVVQFEPSKGAIGKAYKKDAKLVMEYLAICDECYITEMEMLLNEKGEFTIETEGKTFQLTKDMINVKRFQKTLYVEEVVPNVIEPSFGLGRIMYTVFEHTFHVREGDEQRTFFSFPAVVAPFKCSVLPLSQNQEFMPFVKELSEALTRHGVSHKVDDSSGSIGRRYARTDEIGVAFGVTIDFDTVNKTPHTATLRDRDSMRQIRAEISELPSIVQDLANGNITWADVEARYPLFEGQETGKKETIEE

- Kd: 3.21 ± 0.17 nM
B4: GlyRS: human Glycyl-tRNA synthetase, recombinant full-length protein (SEQ ID NO: 2) (protein, listed as Homo sapiens)
chain: MDGAGAEEVLAPLRLAVRQQGDLVRKLKEDKAPQVDVDKAVAELKARKRVLEAKELALQPKDDIVDRAKMEDTLKRRFFYDQAFAIYGGVSGLYDFGPVGCALKNNIIQTWRQHFIQEEQILEIDCTMLTPEPVLKTSGHVDKFADFMVKDVKNGECFRADHLLKAHLQKLMSDKKCSVEKKSEMESVLAQLDNYGQQELADLFVNYNVKSPITGNDLSPPVSFNLMFKTFIGPGGNMPGYLRPETAQGIFLNFKRLLEFNQGKLPFAAAQIGNSFRNEISPRSGLIRVREFTMAEIEHFVDPSEKDHPKFQNVADLHLYLYSAKAQVSGQSARKMRLGDAVEQGVINNTVLGYFIGRIYLYLTKVGISPDKLRFRQHMENEMAHYACDCWDAESKTSYGWIEIVGCADRSCYDLSCHARATKVPLVAEKPLKEPKTVNVVQFEPSKGAIGKAYKKDAKLVMEYLAICDECYITEMEMLLNEKGEFTIETEGKTFQLTKDMINVKRFQKTLYVEEVVPNVIEPSFGLGRIMYTVFEHTFHVREGDEQRTFFSFPAVVAPFKCSVLPLSQNQEFMPFVKELSEALTRHGVSHKVDDSSGSIGRRYARTDEIGVAFGVTIDFDTVNKTPHTATLRDRDSMRQIRAEISELPSIVQDLANGNITWADVEARYPLFEGQETGKKETIEE
